In assay [1] the target is T1, cell surface expressed hepsin in LnCap-34 cells (Homo sapiens, UniProt P05981).
T1 construct: expressed in transfected cells; host or cells: LnCaP-34 cells
In words: Pro-MSP activation by cell surface expressed hepsin in LnCap-34 cells. It is filed as cell-based. The note with it: 1 μM inhibitor, 15 minutes preincubation, 125I-pro-MSP 25 μg/ml, 3 hours, 37° C. As to the method: Confluent LnCap-34 cells cultured in 24-well plates were washed with serum-free RPMI-1640 medium and were incubated either alone or with different anti-hepsin inhibitors (1 μM of anti-hepsin antibody Fab25/1 μM of KD1/1 μM of Ac-KQLR-cmk (‘KLQR” disclosed as SEQ ID NO:10)) in serum-free RPMI-1640 medium for 15 minutes at 37° C. prior to addition of 125I-labeled pro-MSP (25 μg/ml). After incubation for 3 hours at 37° C., aliquots were removed and analyzed by SDS-PAGE (4-20% gradient gel) (Invitrogen, Carlsbad, Calif.) followed by exposure to X-ray films.

The subject of a further assay is Ron signaling pathway. The assay can be described thus: Immunoblot for phosphorylated downstream kinases in A2780 cells overexpressing human Ron. It is filed as cell-based. The conditions noted are these: pro-MSP 10 and 50 ng/ml, 10 nM hepsin, 1 hour. The protocol: Immunoblot for the detection of phosphorylated kinases: A human ovarian carcinoma cell line (A2780) overexpressing human Ron was used to study the phosphorylation of Ron and other downstream kinase. Cells at a density of 2×10^5 cells/well were cultured in 12-well plate and serum-starved for 24 hours. The cells were then stimulated with either pro-MSP (10 and 50 ng/ml) alone or in presence of 10 nM Hepsin for 1 hour. Mature MSP from a commercial source and hepsin were used as controls. Samples were prepared by washing cells twice with cold PBS followed by addition of 200 ul lysis buffer. Samples were then analyzed by SDS/PAGE on 4-12% Tris-glycine gels (Invitrogen, Carlsbad, Calif.). Proteins were transferred onto nitrocellulose membranes and subsequently treated with anti-Ron antibody or anti-phospho-AKT antibody or anti-phospho-MAPK antibody or anti-phospho-S6 antibody, overnight at 4° C. After washing, membranes were incubated with IRDye800-conjugated goat anti-mouse IgG (Rockland, Gilbertsville, Pa.) and AlexaFluor 680 goat anti-rabbit IgG (Invitrogen) for 1 h. Proteins were detected with the Odyssey Infrared Imaging System (LI-COR Biosciences, Lincoln, Nebr.).

* marks the point of attachment. CH2Cl = ClC*

This note sets out measurements from US8697386B2, “Methods and compositions for modulating hepsin activation of macrophage-stimulating protein” (Genentech, Inc., priority 2009, dated 2014).

T1 sequence (P05981 whole entry): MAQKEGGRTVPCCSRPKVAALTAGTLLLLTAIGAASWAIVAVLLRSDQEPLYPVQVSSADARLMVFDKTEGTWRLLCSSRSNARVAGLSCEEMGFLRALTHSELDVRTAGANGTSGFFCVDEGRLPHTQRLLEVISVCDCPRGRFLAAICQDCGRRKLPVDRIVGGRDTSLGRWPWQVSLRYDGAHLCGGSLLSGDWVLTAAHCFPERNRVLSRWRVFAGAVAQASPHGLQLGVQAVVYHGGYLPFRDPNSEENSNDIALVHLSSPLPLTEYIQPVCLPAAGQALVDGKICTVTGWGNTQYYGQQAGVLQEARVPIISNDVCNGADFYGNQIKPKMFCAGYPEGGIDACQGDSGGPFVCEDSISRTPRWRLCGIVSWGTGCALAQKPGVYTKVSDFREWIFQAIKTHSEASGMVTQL

Turning to “Ac-KQLR-chloromethylketone (Ac-KQLR-CH2Cl; SMILES CC(=O)N[C@@H](CCCCN)C(=O)N[C@@H](CCC(N)=O)C(=O)N[C@@H](CC(C)C)C(=O)N[C@@H](CCCNC(=N)N)C(=O)CCl) [reference compound]”, in assay [1], the “blocking of pro-MSP proteolytic cleavage by cell surface hepsin” value is “effectively blocked”. Still for that read-out and setting: in the case of “KD1: Kunitz domain 1 (KD1) of HAI-1 or HAI-1B, hepsin inhibitor (TEDYCLASNKVGRCRGSFPRWYYDPTEQICKSFVYGGCLGNKNNYLREEECILACRGV)” it was “effectively blocked”. On to “hepsin: extracellular domain of the human recombinant hepsin, type II transmembrane serine protease”, for which the “phosphorylation of MAP kinase and S6 kinase (activation of Ron signaling pathway)” value in the assay on Ron signaling pathway is “Neither hepsin nor pro-MSP alone was effective”.
